# Residue numbers refer to the chain shown, from its start. Names may count otherwise.
# B1: WAb0001 (antibody, V domains shown)
# VH: QVQLVQSGAEVKKPGASVKVSCKASGYNIKDYYIHWVRQAPGQGLEWMGWISPDSGVTNYAQKFQGRVTMTRDTSTSTVYMELSSLRSEDTAVYYCARGYDVDWFVYWGQGTLVTVSS
# VL: DIQMTQSPSSLSASVGDRVTITCSARQSVSYMYWYQQKPGKAPKLLIYRTSNLASGVPSRFSGSGSGTDFTLTISSLQPEDFATYYCQQYHSYPPTFGGGTKVEIK
# notes: constant regions not tied to this antibody; also called WAb CD0001
# B2: WAb0002 (antibody, V domains shown)
# VH: B1 VH with D54S
# VL: B1 VL
# notes: constant regions not tied to this antibody; also called WAb CD0002
# B3: WAb0009 (antibody, V domains shown)
# VH: QVQLVQSGAEVKKPGASVKVSCKASGYTFTGHYVHWVRQAPGQGLEWMGWIDHENGNTIYDQKFQGRVTMTRDTSTSTVYMELSSLRSEDTAVYYCARGYDVDWFVYWGQGTLVTVSS
# VL: B1 VL with Q27S
# notes: constant regions not tied to this antibody; also called WAb CD0009
# B4: WAb0005 (antibody, V domains shown)
# VH: B3 VH with T30I, H32S
# VL: B1 VL with Q27S, N52S
# notes: constant regions not tied to this antibody; also called WAb CD0005
# B5: WAb0003 (antibody, V domains shown)
# VH: B1 VH with Y27F, S52D, D54E, S55N, V57S, N59I, A61D, V102I
# VL: B1 VL with Q27S
# notes: constant regions not tied to this antibody; also called WAb CD0003
# B6: WAb0007 (antibody, V domains shown)
# VH: B3 VH with T30I, H32S
# VL: B1 VL with Q27S, N52S
# notes: also called WAb CD0007
# B7: WAb0004 (antibody, V domains shown)
# VH: B1 VH with Y27F, S52D, D54E, V57S, N59I, A61D, V102I
# VL: B1 VL with Q27S
# notes: constant regions not tied to this antibody; also called WAb CD0004
# B8: WAb0006 (antibody, V domains shown)
# VH: B3 VH with G31S, V34I, H35Q, Y100T
# VL: B1 VL with Q27S
# notes: light chain is WAL0921 (human kappa) with Q27S; also called WAb CD0006; original backup candidate
# B9: suPAR_DB05_B09 (scFv, V domains shown)
# VH: B3 VH with H32Y, V34M, H53P, E54S, N55G
# VL: B1 VL with Q27S
# notes: Screened as scFv
# B10: suPAR_DB05_B11 (scFv, V domains shown)
# VH: B3 VH with T30S, G31A, H32Y, V34M, D61A
# VL: B1 VL with Q27S
# notes: Screened as scFv
# B11: suPAR_DB05_C04 (scFv, V domains shown)
# VH: B1 VH with Y27F, S52D, D54E, S55N, V57N, N59I, A61D
# VL: B1 VL with A54Q
# notes: Screened as scFv
# B12: suPAR_DB05_B08 (scFv, V domains shown)
# VH: B3 VH with Y27N, T28A, T30S, D61A
# VL: B1 VL
# notes: Screened as scFv
# B13: suPAR_DB05_C02 (scFv, V domains shown)
# VH: B3 VH with Y27D, G31S, H32Y, V34M, H53P, E54S
# VL: B1 VL with Q27S
# notes: Screened as scFv
# B14: suPAR_DB05_C09 (scFv, V domains shown)
# VH: B1 VH with N28T, I29F, K30T, D31G, I34M, V57A, N59K, Y60V
# VL: B1 VL with Q27S
# notes: Screened as scFv
# B15: suPAR_DB05_D01 (scFv, V domains shown)
# VH: B3 VH with Y27H, F29S, G31N, H32Y, V34M, N55G, I59S
# VL: B1 VL with Q27S
# notes: Screened as scFv
# B16: suPAR_DB05_C03 (scFv, V domains shown)
# VH: B3 VH with G31N, H32Y, V34M, N55G, I59S, D61A
# VL: B1 VL with S24R, Q27S
# notes: Screened as scFv
# B17: suPAR_DB05_C11 (scFv, V domains shown)
# VH: B1 VH with N28I, I29F, K30T, D31S, I34M, S52D, D54Y, V57A
# VL: B1 VL with S24R, Q27S, V29I
# notes: Screened as scFv
# B18: suPAR_DB05_D06 (scFv, V domains shown)
# VH: B3 VH with T30S, G31S, H32Y, V34M, Y100D
# VL: B1 VL with Q27S
# notes: Screened as scFv
# B19: suPAR_DB05_D11 (scFv, V domains shown)
# VH: B3 VH with F29L, H32Y, V34M, H35Q, H53P, N57S
# VL: B1 VL with R26S, Q27S
# notes: Screened as scFv
# B20: suPAR_DB05_C05 (scFv, V domains shown)
# VH: B1 VH with D31S, S52D, D54N, V57G, K63N
# VL: B1 VL with Q27S
# notes: Screened as scFv
# B21: suPAR_DB05_B05 (scFv, V domains shown)
# VH: B3 VH with Y27N, T30S, H32Y, H53P, E54S
# VL: B1 VL with Q27S
# notes: Screened as scFv
# B22: suPAR_DB05_D03 (scFv, V domains shown)
# VH: B3 VH with T30G, G31N, H32Y, V34M, D61A, Y100N
# VL: B1 VL with Q27S
# notes: Screened as scFv
# B23: suPAR_DB05_D10 (scFv, V domains shown)
# VH: B3 VH with T30S, G31N, H32Y, V34I, Y100T
# VL: B1 VL with S24R
# notes: Screened as scFv
# B24: suPAR_DB05_D08 (scFv, V domains shown)
# VH: B1 VH with N28T, I29F, K30T, D31R, I34M, M48V, S52D, D54H, V57G, V102I
# VL: B1 VL
# notes: Screened as scFv
# B25: suPAR_DB05_E02 (scFv, V domains shown)
# VH: QVQLVQSGAEVKKPGASVKVSCKASGYTFTSYYMHWVRQAPGQGLEWMGWIDLNSGGAKYAQRFQGRVTMTRDTSTSTVYMELSSLRSEDTAVYYCARGYDVDWFVYWGQGTLVTVSS
# VL: B1 VL with Q27S
# notes: Screened as scFv
# B26: suPAR_DB05_B06 (scFv, V domains shown)
# VH: B3 VH with T28P, G31N, H32Y, V34M, N55G, N57S
# VL: B1 VL with R26S
# notes: Screened as scFv
# B27: suPAR_DB05_E01 (scFv, V domains shown)
# VH: B3 VH with G31N, H32Y, V34M
# VL: B1 VL with S24R, Q27S
# notes: Screened as scFv
# B28: suPAR_DB05_B03 (scFv, V domains shown)
# VH: B25 VH with M34I, M48I, I51M, L53P, G57S, K59A, R63K
# VL: B1 VL with Q27S
# notes: Screened as scFv
# B29: suPAR_DB05_E03 (scFv, V domains shown)
# VH: B3 VH with Y27H, F29L, T30N, G31S, H32Y, V34I, H53P, E54S, N55G
# VL: B1 VL with Q27S
# notes: Screened as scFv
# B30: suPAR_DB05_D05 (scFv, V domains shown)
# VH: B3 VH with G31N, H32Y, V34M, E54S, N57S
# VL: B1 VL with S24R
# notes: Screened as scFv
# B31: suPAR_DB05_E05 (scFv, V domains shown)
# VH: B3 VH with T28N, G31N, H32Y, V34M, E54S, N57S
# VL: B1 VL with Q27S
# notes: Screened as scFv
# B32: suPAR_DB05_C07 (scFv, V domains shown)
# VH: B3 VH with G31S, N55G, N57S, I59S
# VL: B1 VL with S24R
# notes: Screened as scFv
# B33: suPAR_DB05_C06 (scFv, V domains shown)
# VH: B1 VH with Y27F, D31S, S52D, D54N, V57G
# VL: B1 VL with Q27S
# notes: Screened as scFv
# B34: suPAR_DB05_C08 (scFv, V domains shown)
# VH: B3 VH with G31S, H32Y, V34M, H53P
# VL: B1 VL with S24R
# notes: Screened as scFv
# B35: suPAR_DB05_D09 (scFv, V domains shown)
# VH: B3 VH with G31S, H32Y, V34M, H53P, D61A
# VL: B1 VL with Q27S, N52S
# notes: Screened as scFv
# B36: suPAR_DB05_B04 (scFv, V domains shown)
# VH: B3 VH with G31T, H32Y, V34M, H53P, E54S
# VL: B1 VL with Q27S
# notes: Screened as scFv
# B37: suPAR_DB05_E04 (scFv, V domains shown)
# VH: B3 VH with T28S, G31S, H32N, V34M
# VL: B1 VL with Q27S
# notes: Screened as scFv
# B38: suPAR_DB05_D02 (scFv, V domains shown)
# VH: B3 VH with F29I, H32N, V34M, N57S
# VL: B1 VL with V29I
# notes: Screened as scFv
# B39: suPAR_DB05_D12 (scFv, V domains shown)
# VH: B3 VH with Y27F, G31N, H32Y, V34F, H53P
# VL: B1 VL with Q27S
# notes: Screened as scFv
# Target: T1, human soluble urokinase plasminogen activator receptor (suPAR) (human, UniProt Q03405 23-303, limits assumed)
# T1 construct: also called hsuPAR; human suPAR
# Assay: dissociation rate (kdis) on human suPAR; method not stated
# T1 sequence (Q03405 23-303 limits assumed): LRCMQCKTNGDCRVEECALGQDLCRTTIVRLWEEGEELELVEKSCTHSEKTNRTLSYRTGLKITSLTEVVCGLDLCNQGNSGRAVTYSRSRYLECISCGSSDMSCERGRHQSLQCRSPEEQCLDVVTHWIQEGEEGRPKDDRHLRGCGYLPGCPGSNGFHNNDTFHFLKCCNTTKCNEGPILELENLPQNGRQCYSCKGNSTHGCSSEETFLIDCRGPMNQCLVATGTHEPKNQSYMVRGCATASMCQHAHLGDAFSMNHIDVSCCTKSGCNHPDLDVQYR
row,koff,Binder
1,3.04e-07 s⁻¹,B1
2,8.37e-05 s⁻¹,B2
3,3.47e-07 s⁻¹,B3
4,3.97e-07 s⁻¹,B4
5,3.57e-07 s⁻¹,B5
6,2.76e-07 s⁻¹,B6
7,2.61e-07 s⁻¹,B7
8,3.39e-07 s⁻¹,B8

# Target: T2, human soluble urokinase plasminogen activator receptor (suPAR) (human, UniProt Q03405 23-303, limits assumed)
# T2 construct: Column head says only 'human'; also called hsuPAR; human suPAR
# Assay: BLI (Octet) off-rate screen of scFv clones
# T2 sequence (Q03405 23-303 limits assumed): as above
row,koff,Binder
1,0.00273 s⁻¹,B9
2,0.00219 s⁻¹,B10
3,0.00452 s⁻¹,B11
4,0.00488 s⁻¹,B12
5,0.00375 s⁻¹,B13
6,0.00384 s⁻¹,B14
7,0.00533 s⁻¹,B15
8,0.00367 s⁻¹,B16
9,0.00335 s⁻¹,B17
10,0.00345 s⁻¹,B18
11,0.00555 s⁻¹,B19
12,0.00547 s⁻¹,B20
13,0.00417 s⁻¹,B21
14,0.00345 s⁻¹,B22
15,0.006 s⁻¹,B23
16,0.00471 s⁻¹,B24

row,koff,Binder
1,0.00517 s⁻¹,B25
2,0.00213 s⁻¹,B26
3,0.00208 s⁻¹,B27
4,0.00366 s⁻¹,B28
5,0.00535 s⁻¹,B29
6,0.001 s⁻¹,B30
7,0.00165 s⁻¹,B31
8,0.00431 s⁻¹,B32
9,0.00507 s⁻¹,B33
10,0.00284 s⁻¹,B34
11,0.00384 s⁻¹,B35
12,0.00623 s⁻¹,B36
13,0.00544 s⁻¹,B37
14,0.00116 s⁻¹,B38
15,0.00477 s⁻¹,B39

# Target: T3, cynomolgus soluble urokinase plasminogen activator receptor (suPAR) (cynomolgus, UniProt Q9GK78 23-303, limits assumed)
# T3 construct: Column head says only 'cynomologus'; also called cynomolgus suPAR; cynomolgus uPAR
# Assay: BLI (Octet) off-rate screen of scFv clones
# T3 sequence (Q9GK78 23-303 limits assumed): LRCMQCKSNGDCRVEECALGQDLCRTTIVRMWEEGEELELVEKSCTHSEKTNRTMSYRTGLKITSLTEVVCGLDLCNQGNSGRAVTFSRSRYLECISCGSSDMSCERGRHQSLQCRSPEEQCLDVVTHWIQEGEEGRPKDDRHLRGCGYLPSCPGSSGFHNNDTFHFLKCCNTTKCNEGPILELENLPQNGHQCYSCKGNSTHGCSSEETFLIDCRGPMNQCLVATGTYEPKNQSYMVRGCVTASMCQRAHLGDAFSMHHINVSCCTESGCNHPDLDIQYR
row,koff,Binder
1,0.000583 s⁻¹,B9
2,0.000431 s⁻¹,B10
3,0.000457 s⁻¹,B11
4,0.000129 s⁻¹,B12
5,0.00061 s⁻¹,B13
6,0.000464 s⁻¹,B14
7,0.000315 s⁻¹,B15
8,0.000455 s⁻¹,B16
9,0.000168 s⁻¹,B17
10,0.000375 s⁻¹,B18
11,0.000775 s⁻¹,B19
12,0.000202 s⁻¹,B20
13,0.000193 s⁻¹,B21
14,0.00124 s⁻¹,B22
15,0.000851 s⁻¹,B23
16,7.69e-05 s⁻¹,B24

row,koff,Binder
1,0.000824 s⁻¹,B25
2,0.000234 s⁻¹,B26
3,0.000767 s⁻¹,B27
4,0.000311 s⁻¹,B28
5,0.000265 s⁻¹,B29
6,0.000669 s⁻¹,B30
7,0.000298 s⁻¹,B31
8,0.000237 s⁻¹,B32
9,0.000123 s⁻¹,B33
10,0.000548 s⁻¹,B34
11,0.000666 s⁻¹,B35
12,0.000606 s⁻¹,B36
13,0.000354 s⁻¹,B37
14,0.000435 s⁻¹,B38
15,0.000352 s⁻¹,B39
